Data reported in FireProtDB (doi:10.1006/jmbi.1996.0075).
Where “and” joins values, the source holds several entries; their conditions need not be identical. Equal values may be shown once.

Settings: Equus caballus, 20 °C, CD, reversible: yes; for unfolding free energy: Thermal

Cytochrome c wild type, P00004, sequence (P00004 whole entry): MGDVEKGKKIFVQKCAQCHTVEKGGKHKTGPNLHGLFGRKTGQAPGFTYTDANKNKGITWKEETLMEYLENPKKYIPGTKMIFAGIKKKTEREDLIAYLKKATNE

## Cytochrome c wild type, P00004
pH 2, GdnHCl, glycine-HCl 5-10 mM, NaClO4 200 mM
  denaturant m value: 1.58 kcal/mol/M and 1.24 kcal/mol/M and 1.12 kcal/mol/M
pH 3.9, Sodium acetate 5-10 mM, NaCl
  unfolding free energy: 0.57 kcal/mol
pH 6, Sodium phosphate 5-10 mM, NaCl
  unfolding free energy: 1.39 kcal/mol
pH 7, GdnHCl, Sodium phosphate 5-10 mM, NaCl
  denaturant m value: 3.01 kcal/mol/M and 2.1 kcal/mol/M
pH 7, Sodium phosphate 5-10 mM, NaCl
  unfolding free energy: 1.7 kcal/mol
pH 7, Urea, Sodium phosphate 5-10 mM, NaCl
  denaturant m value: 1.2 kcal/mol/M and 0.86 kcal/mol/M
